From PMC10210160, “Structural and biochemical elucidation of class I hybrid cluster protein natively extracted from a marine methanogenic archaeon” (Frontiers in Microbiology, 2023) come the findings set out here.

Data set [1] concerns the target T1, MtHCP (hybrid cluster protein, class I) (Methanothermococcus thermolithotrophicus, UniProt A0AA82WPD8).
T1 construct: gene hcp; native anaerobic purification from the archaeon, untagged; five extra N-terminal residues versus WP_026182881.1 (mispredicted start Met)
T1 sequence (A0AA82WPD8 1-548): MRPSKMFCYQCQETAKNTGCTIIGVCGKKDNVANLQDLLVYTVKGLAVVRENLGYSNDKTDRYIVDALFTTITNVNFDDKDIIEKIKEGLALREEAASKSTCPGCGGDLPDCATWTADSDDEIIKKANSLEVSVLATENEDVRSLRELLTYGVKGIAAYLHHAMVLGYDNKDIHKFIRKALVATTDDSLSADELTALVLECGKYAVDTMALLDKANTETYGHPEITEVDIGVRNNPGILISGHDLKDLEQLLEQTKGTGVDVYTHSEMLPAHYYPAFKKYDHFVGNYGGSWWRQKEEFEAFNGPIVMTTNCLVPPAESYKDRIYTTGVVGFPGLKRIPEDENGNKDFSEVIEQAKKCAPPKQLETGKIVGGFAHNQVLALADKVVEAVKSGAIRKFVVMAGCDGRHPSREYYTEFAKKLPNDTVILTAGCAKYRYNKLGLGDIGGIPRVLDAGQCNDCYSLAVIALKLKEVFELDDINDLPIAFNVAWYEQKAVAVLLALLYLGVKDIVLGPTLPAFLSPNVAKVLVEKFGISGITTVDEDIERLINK
Kind of data set: X-ray crystal structure, […] Å. As to conditions: as isolated, reduced state (MtHCPred). The data set is classed as binding.

Substrate in the data set “purified protein”: NO
In words: purified protein. To be noted: 10 mM methyl viologen, 75 μM dithionite, 10 μM EDTA, 50 mM HEPES pH 7.35, 50°C, anaerobic. The data set is classed as biochemical, Methanothermococcus thermolithotrophicus.

For the molecule `[S]12[Fe]3[S]4[Fe]1[S]1[Fe]2[S]3[Fe]41` [[4Fe-4S] cluster], the “X-ray crystal structure, 1.45 Å” value in data set [1] is “harbouring a cubane [4Fe-4S] cluster and the hybrid cluster”.

B1: MtHCP (hybrid cluster protein, class I) (Methanothermococcus thermolithotrophicus DSM 2095) (protein)
chain: T1 sequence (A0AA82WPD8 1-548)
notes: native anaerobic purification from the archaeon, untagged; five extra N-terminal residues versus WP_026182881.1 (mispredicted start Met)
One may read the Km as the concentration of substrate that gives half-maximal velocity. In general, kcat refers to the number of substrate molecules converted per active site and unit of time at saturation. With B1, in the data set “purified protein”, the Km turned out to be 2200 ± 500 µM and the kcat came out at 0.072 s⁻¹.
